“And” between values parts separate entries of the source, which are not always exact repeats. Identical values can stand only once.

Common to all, as to assay: pull-down
Experiment [1] has as its target GST-NR1-1a (GST fused to the cytoplasmic tail of NR1-1a) (UniProt P35439).
Experiment [2] addresses PKA phosphorylated GST-NR1-1a.
Experiment [3] addresses PKC-phosphorylated GST-NR1-1a.

For “importin α (endogenous, rat brain) (from UniProt P83953 1-538) (natural protein)”, the importin α pulled down (immunoblot signal, a.u.) is 0.94 a.u. and 1.43 a.u in experiment [1]; 1.33 a.u in experiment [2]; 0.378 a.u in experiment [3].

Values taken from publication PMC2819930.
